Source: patent publication US20260152753

Tested on: κ-casein (in skim milk)

PEP4 aspartyl protease of the Pichia pastoris host cell
SDS electrophoresis after 24 hours at 5 °C, 0.5% b-lactoglobulin from a pep4-containing host, heated and unheated: the k-casein peak in both the heated and unheated samples had markedly reduced in size and a peak in the position expected for para-k-casein was present | SDS-PAGE of heated skim milk with B-lac from a pep4-containing host: κ-casein band and para-κ-casein band: the band intensity of the k-casein band decreased and a peptide band consistent with that of para-k-casein appeared | SDS-PAGE of unheated skim milk with B-lac from a pep4-containing host: κ-casein band and para-κ-casein band: the band intensity of the k-casein band decreased and a peptide band consistent with that of para-k-casein appeared | lab-on-a-chip para-κ-casein peak area 24 h after 80 °C/30 min treatment, sample B-lac 1A (start: 0): After 24 hours, the peak area was 115.2 and 35.82 for κ-casein and para-κ-casein, respectively | lab-on-a-chip para-κ-casein peak area 24 h after 120 °C/10 min treatment, sample B-lac 1A (start: 0): After 24 hours, the peak area was 179.4 and 16.12 for κ-casein and para-κ-casein, respectively | lab-on-a-chip peak area of para-κ-casein formed at 24 h at 5 °C, sample B-lac 1A (0 h: 0): 147 peak area | lab-on-a-chip peak area of para-κ-casein formed at 24 h at 5 °C, sample B-lac 1B (0 h: 0): 56.1 peak area | lab-on-a-chip κ-casein peak area 24 h after 80 °C/30 min treatment, sample B-lac 1A (start: 249.48): After 24 hours, the peak area was 115.2 and 35.82 for κ-casein and para-κ-casein, respectively | lab-on-a-chip κ-casein peak area 24 h after 120 °C/10 min treatment, sample B-lac 1A (start: 249.6): After 24 hours, the peak area was 179.4 and 16.12 for κ-casein and para-κ-casein, respectively | lab-on-a-chip κ-casein peak area at 24 h at 5 °C, sample B-lac 1A (0 h: 255): 91.5 (64% degraded) | lab-on-a-chip κ-casein peak area at 24 h at 5 °C, sample B-lac 1B (0 h: 253.98): 138.72 (46% degraded) | microfluidic chip SDS-PAGE of skim milk with about 1% B-Lac 1A held 0, 24 or 48 hours at room temperature: showed evidence of proteolysis on storage with a decrease in the band associated with k-casein, and a new peptide peak appearing | κ-casein degraded 24 h after 80 °C/30 min treatment, sample B-lac 1A: indicating that κ-casein had degraded by 54% | κ-casein degraded 24 h after 120 °C/10 min treatment, sample B-lac 1A: indicating that κ-casein had degraded by 72% | κ-casein degraded after 24 h at 5 °C, sample B-lac 1A: 91.5 (64% degraded) | κ-casein degraded after 24 h at 5 °C, sample B-lac 1B: 138.72 (46% degraded)
